{"source": "paper PMC1781933", "about": "“Structure-based engineering of papillomavirus major capsid L1: controlling particle assembly” (Virology Journal, 2007)", "proteins": {"B1": {"name": "full-length HPV16 L1 (natural protein)", "chain": "MSLWLPSEATVYLPPVPVSKVVSTDEYVARTNIYYHAGTSRLLAVGHPYFPIKKPNNNKILVPKVSGLQYRVFRIHLPDPNKFGFPDTSFYNPDTQRLVWACVGVEVGRGQPLGVGISGHPLLNKLDDTENASAYAANAGVDNRECISMDYKQTQLCLIGCKPPIGEHWGKGSPCTNVAVNPGDCPPLELINTVIQDGDMVDTGFGAMDFTTLQANKSEVPLDICTSICKYPDYIKMVSEPYGDSLFFYLRREQMFVRHLFNRAGAVGENVPDDLYIKGSGSTANLASSNYFPTPSGSMVTSDAQIFNKPYWLQRAQGHNNGICWGNQLFVTVVDTTRSTNMSLCAAISTSETTYKNTNFKEYLRHGEEYDLQFIFQLCKITLTADVMTYIHSMNSTILEDWNFGLQPPPGGTLEDTYRFVTSQAIACQKHTPPAPKEDPLKKYTFWEVNLKEKFSADLDQFPLGRKFLLQAGLKAKPKFTLGKRKATPTTSSTSTTAKRKKRKL", "notes": "major capsid protein L1 of human papillomavirus type 16, full-length clone in pGEX-2T; Purified as pentamers; forms T = 7 particles in assembly buffer; also called wild-type L1; major capsid L1 protein; source: E. coli, expressed as GST-L1 fusion from pGEX-2T, glutathione column, cleaved with thrombin, Superdex-200; not shown: GST, N-terminal, cleaved"}}, "biological_target": "the molecule itself", "assay": "SEC; Superdex-200, L1 eluted from the glutathione column after thrombin cleavage; step: L1 chains to pentamer", "data": [{"protein": "B1", "values": [{"measurement": "stoichiometry N", "result": 5}]}]}
